# According to the nanobody polyreactivity screen of Harvey et al. (2022):
# Experiment: yeast display, Sf9 membrane polyspecificity reagent, FACS + sequencing; frameworks hold sequencing errors
# In short: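 Sorting gates, low and high (top ~1%), were placed on anti-HA fluorescence to track expression and on streptavidin fluorescence to track reagent binding. A clone's polyreactivity label is taken from the gate it came out of. The reagent was 10% biotinylated, detergent-solubilized Sf9 membrane, applied for 1 hour at 4 °C to galactose-induced yeast display cells.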
row,Sequence,polyreactivity (PSR sort gate)
1,QVQLVESGGGLVQAGGSLRLSCAASGSIFGPYAMGWYRQAPGKERELVATINRGVTTYYADSVKGRFTISRDNAKNTVYLQMNSLKPEDTAVYYCAARTYAKRPGYYWGQGTQVTVSS,high polyreactivity
2,QVQLVESGGGLVQAGGSLRLSCAASGSIFGPYAMGWYRQAPGKEREVVAAINSGGSTNYADSVKGRFTISRDNAKNTVYLQMNSLKPEDTAVYYCNAADERSQGWVGYDHWGQCTQVTVSS,low polyreactivity
3,QVQLVESGGGLVQAGGSLRLSCAASGSIFGQYAMGWYRQAPGKEREYVAAISWRGTSTYYADSVKGRFTISRDNAKNTVYLQMNSLKPEDTAVYYCAGRYVKPSRYKYNYWGQGTQVTVSS,high polyreactivity
4,QVQLVESGGGLVQAGGSLRLSCAASGSIFGRNAMGWYRQAPGKEREFVAAISQRGGRTYYADSVKGRFTISRDNAKNTVYLQMNSLKPEDTAVYYCAATYTRVPNRFYYWGQGTQVTVSS,high polyreactivity
5,QVQLVESGGGLVQAGGSLRLSCAASGSIFGRNAMGWYRQAPGKERELVAAISSRSDRTYYADSVKGRFTISRDNAKNTVYLQMNSLKPEDTAVYYCAARYGSSQNGYKSDYWGQGTQVTLSS,high polyreactivity
6,QVQLVESGGGLVQAGGSLRLSCAASGSIFGRNAMGWYRQAPGKERELVARISSRGGSTYYADSVKGRFTISRDNAKNTVYLQLISLKREDTALYYCAAEGGDRYALYTFYTWGQGTQVTVSS,high polyreactivity
7,QVQLVESGGGLVQAGGSLRLSCAASGSIFGRNAMGWYRQAPGKERELVAVISKRSGNTYYADSVKGRFTISRDNAKNTVYLQMNSLKPEDTAVYYCNAVDQKLLRYDYGGQGTQVTVSS,high polyreactivity
8,QVQLVESGGGLVQAGGSLRLSCAASGSIFGRNAMGWYRQAPGREREFVATITSRGGRTYYADSVKGRFTISRDNAKNTVYLQMNSLKPEDTAVYYCAADTYISTLKKYRLGDYWGQGTQVTVSS,low polyreactivity
9,QVQLVESGGGLVQAGGSLRLSCAASGSIFGRNTMGWYRQAPGKERELVAAIDSSGGSTYYADSVKGRFTISRDNAKNTVYLQMNSLKPEDTAVYYCAAESRYATKSGYGLVLYYYWGQGTQVTVSS,high polyreactivity
10,QVQLVESGGGLVQAGGSLRLSCAASGSIFGRYAMGWSRQAPGKERELVAAISRGGSTNYADSVKGRFTISRDNAKNTVYLQMNSLKPEDTAVYYCNRKPYYVSSTRYDYWGQGTQVTVAS,high polyreactivity
11,QVQLVESGGGLVQAGGSLRLSCAASGSIFGRYAMGWYRQAPGKEREFVAAINRSTGSTYYADSVKGRFTISRDNAKNTVYLQMNSLKPEDTAVYYCAARSHSPGYNRRIRGYWGQGTQVTVSS,high polyreactivity
12,QVQLVESGGGLVQAGGSLRLSCAASGSIFGRYAMGWYRQAPGKERELVASINWNSGSTYYADSVKGRFTISRDNAKNTVYLQMNSLKPEDTAVYYCAAAALGYYGYWGQGTQVTVSS,low polyreactivity
13,QVQLVESGGGLVQAGGSLRLSCAASGSIFGRYAMGWYRQAPGTERELVAAISSGGITYYADSVKGRFTISRDNAKNTVYLQMNSLTPEDTAVYYCAVKYLSWYAKYDSWGQGTQVTVSS,high polyreactivity
14,QVQLVESGGGLVQAGGSLRLSCAASGSIFGRYGKGWYRQAPGKERELVAAITSGTRTNYADSVKGRFTISRDNAKITVYLQMNSLTPEDTAVYYSAKQSYRRLPNTPYNYWGQGTQVTVSS,low polyreactivity
15,QVQLVESGGGLVQAGGSLRLSCAASGSIFGRYGMGWYRQAPGKERELVAAITSGTRTNYADSVKGRFTISRDNAKNTVYLQLNSLKPEDTAVYYCNALRLRGNYEYGYWGLGTQVTVSS,low polyreactivity
16,QVQLVESGGGLVQAGGSLRLSCAASGSIFGRYTMGWYRQAPGKERELVAAINRSGGSTSYADSVKGRFTISRDNAKNTVYLQMNSLKPEDTAVYYCNRARSVPQFYGTYGFGYDYWGQGTQVTVSS,low polyreactivity
17,QVQLVESGGGLVQAGGSLRLSCAASGSIFGRYTMGWYRQAPGKERELVAAISWGGGSTYYADSVKGRFTISRDNAKNTVYLQMNSLKREDTAVYYCDADTYWAIDPIYDYWGQGTQVTVSS,low polyreactivity
18,QVQLVESGGGLVQAGGSLRLSCAASGSIFGRYVMGWYRQAPGKERELVAAISGSGTSTYYADSVKGRFTISRDNAKNTVFLQMNSLKPEDTAVYYCAARDIKSSHDYDYWGQGTQVTVSS,low polyreactivity
19,QVQLVESGGGLVQAGGSLRLSCAASGSIFGSNAMGWYRPAPGKERELVAAITNTGRTNYADSVKGRFTISRDNAKNTVYLQMNSLKPEDTAVYYCYTDGYEFTHFVGGWYQIIDYDYWGQGTQVTVSS,low polyreactivity
20,QVQLVESGGGLVQAGGSLRLSCAASGSIFGSNAMGWYRQAPGKERELVAAISVRDGSTSYADSVKGRFTISRDNAKNTVYLQMNSLKPEDPAVYYCTAKSLAERYYRPEMDYWGQGTQVTVSS,low polyreactivity
21,QVQLVESGGGLVQAGGSLRLSCAASGSIFGSNAMGWYRQAPGKERELVAAITNTGRTNYADSVKGRFTISRDYAKNTVYLQMNSLKPEDTAVYYCNADWRRSHAYGYWGQGTQVTVSS,low polyreactivity
22,QVQLVESGGGLVQAGGSLRLSCAASGSIFGSNAMGWYRQAPGKERELVAANSKSGGSTYYADSVKGRFTISRDNAKITVYLQMNSLKPEDTAVYYCNARWWVVTFYGRYEGDYWGQGTQVTVSS,low polyreactivity

row,Sequence,polyreactivity (PSR sort gate)
1,QVQLVESGGGLVQAGGSLRLSCAASGSIFGSNAMGWYRRAPGKERELVAVINASGASTYYADSVKGRFTISRDNAKNTVYLQKNSLKPEDTAVYYCAKDPFPFPGGDYWGQGTQVTVSS,low polyreactivity
2,QVQLVESGGGLVQAGGSLRLSCAASGSIFGSYAMGWYRQAPGKERELVAAISKSGGNTYYADSVKGRFTISRDNAKNTVYLQMNSLKPEDTAVYYCAAYGFYRWRGYDYWGQGTQVTVSS,high polyreactivity
3,QVQLVESGGGLVQAGGSLRLSCAASGSIFGSYTMGWYRQAPGKERELVAAITTSGSSTYYADSVKGRFTISRDNAKNTVYLQMNSLKPEDTAVYYCSAEYYVTYPPYGWYDYWGHGTQVTVSS,high polyreactivity
4,QVQLVESGGGLVQAGGSLRLSCAASGSIFGSYVMGGYRQAPGKERELVATITNGGSTYYADSVKGRFTISRDNAKNTVYLQMNSLKPEDTAVYYCAADGRGDLYVWPGIGGDYWGQGTQVTVSS,low polyreactivity
5,QVQLVESGGGLVQAGGSLRLSCAASGSIFGTNAMGWYIQAPGKEREFVATISSRTGSTYYADSVKGRFTFSRDNAKNTVYLQMNSLKPEDTAVYYCAAVRWYGKYDYWGQGTQVTVSS,low polyreactivity
6,QVQLVESGGGLVQAGGSLRLSCAASGSIFGTYAMGWYRQAPGKARELVAAITGSGGRTYYADSVKGRFTISRDNAKNTVYLQMNSLKPEDTAVYYCNKVVYVRSYPPRYDYWGQGTQVTVSS,high polyreactivity
7,QVQLVESGGGLVQAGGSLRLSCAASGSIFGTYAMGWYRQAPGKERELVAAISWSDGSTYYADSVKGRFTISRDNAKNTVYLQMNSLKPEDTAVYYCAKVYRSIGPNVSRYGLSYYYWGQGTQVTVSS,low polyreactivity
8,QVQLVESGGGLVQAGGSLRLSCAASGSIFGTYAMGWYRQAPGKERELVAAITGSGGRTYYADSVKGRFTISRDNAKNTVYLQMNSLKPEDTAVYYCNKVVYVRSYPPRYDYWGQGTQVSVSS,high polyreactivity
9,QVQLVESGGGLVQAGGSLRLSCAASGSIFGTYAMRWYIQAPGKERDLVATISYGDGYTYYADSVKGRFTISRDNAKNTVYLLMNSLKPEDTPVYYCNTGVFSSGGPLVYWGEGTQVTVSS,low polyreactivity
10,QVQLVESGGGLVQAGGSLRLSCAASGSIFGVNMGWYRQAPGKERELVASITSGGSTNYADSVKGRFTISRDNAKNTVYLQMNSLKPEDTAVYYCATDRYVWGQGTQVTVSS,low polyreactivity
11,QVQLVESGGGLVQAGGSLRLSCAASGSIFGVYAMGLYRQAPGKERELVASIDTSTGSTYYADSVKGRFTISRDNAKNTVYLQMNSLKPEDTAVYYCNADVGYYFTFEYWGQGTQVTVSS,high polyreactivity
12,QVQLVESGGGLVQAGGSLRLSCAASGSIFGVYAMGWYRQAPGKERELVAGITFGDSTTYYADSVKGRFTISRDNAKNTVYLQMNSLKPEDTAVYYCAADNRWEDYKVDYWGQGTQVTVSS,low polyreactivity
13,QVQLVESGGGLVQAGGSLRLSCAASGSIFGVYAMGWYRQAPGKERELVAVITYRDGSTYYADSVKGRFTISRVNAKNTVYLQMNSLKPEDSAVYYCAADSYLGWHSDYGVEYYYWGQGTQVTVSS,low polyreactivity
14,QVQLVESGGGLVQAGGSLRLSCAASGSIFGVYDMGWYRQAPGKERELVAVINSNGGSTYYADSVKGRFTISRDNAKNTVYLQMNSLKPEDTAVYYCAAERATVKFGYWGQGTQVTVSS,low polyreactivity
15,QVQLVESGGGLVQAGGSLRLSCAASGSIFGYNARGWYRQAPGKERELVATINWSGTSTYYAASVKGRFTISRDNAKNTVYLQMNSLKPVDTAVYYCNAKYLWYGRYNYWGQGTQVTVSS,high polyreactivity
16,QVQLVESGGGLVQAGGSLRLSCAASGSIFGYNTMGWYREAPGKERELVAAISYRGGSTYADSVKGRFTISRDNAKNTVYLQLNSLKPEDTAVYYSAATSYTATWRYYYWGQGTQVTVSS,high polyreactivity
17,QVQLVESGGGLVQAGGSLRLSCAASGSIFGYNVMGWYRQAPGKERELVAAITYSGGSTYYADSVKGRFTISRDNAKNTVYLQMNSQKQEDTAVYYCAKVTGRRFPAYGYDHWGQGTQVTVSS,high polyreactivity
18,QVQLVESGGGLVQAGGSLRLSCAASGSIFGYYALGWSRPAPGKERELVASITSGDSTNYADSVKGRFTISRDNAKKTVYLQMNSQKPEDTAVYYCTTERGDYDEYDYWGQGTQVTVSS,low polyreactivity
19,QVQLVESGGGLVQAGGSLRLSCAASGSIFGYYAMGWYRQAPGKERELVAAINSSGGSTYYADSVKGRFTISRDNAKNTVYLQMNSLKPDDTAVYYCAVRTRYKFNYWGQGTQVTVSS,low polyreactivity
20,QVQLVESGGGLVQAGGSLRLSCAASGSIFGYYAMGWYRQAPGKERELVAAISVSGGSTYYADSVKGRFTISRDNAKNTVYLQMNSLKPEDTAVYYCKKVQGSWRVPYYYWGQGTQVTVSS,high polyreactivity
21,QVQLVESGGGLVQAGGSLRLSCAASGSIFGYYAMGWYRQAPGKERELVAAITRSGGSTYYADSVKGRFTISRDNAKNTVYLQMNSLKPEDTAVYYCNAVRYAVRLPAFPGYDYWGQGTQVTVSS,high polyreactivity
